Source: paper PMC10397247
Values belong to the binder of their own block, whether it stands above or below them.

How the values were obtained:
[1] = biological target: T1, Core_INNN-es_KEEE; experiment: two-hybrid library CCmax; conditions: mean of both orientations;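 further: natural log of median RNA to DNA barcode read ratio; higher means stronger binding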
T1 chain: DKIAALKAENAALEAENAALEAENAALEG

[2] = biological target: T2, 4H3414-bN; experiment: two-hybrid library CCNG1;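 further: natural log of median RNA to DNA barcode read ratio; higher means stronger binding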
T2 chain: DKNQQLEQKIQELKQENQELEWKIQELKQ

[3] = biological target: T3, 4H3628-bN; experiment: two-hybrid library CCNG1;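 further: natural log of median RNA to DNA barcode read ratio; higher means stronger binding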
T3 chain: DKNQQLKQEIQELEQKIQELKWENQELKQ

[4] = biological target: T4, 4H1544-bN; experiment: two-hybrid library CCNG1;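 further: natural log of median RNA to DNA barcode read ratio; higher means stronger binding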
T4 chain: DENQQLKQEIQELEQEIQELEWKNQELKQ

[5] = biological target: T5, 4H1629-bN; experiment: two-hybrid library CCNG1
T5 chain: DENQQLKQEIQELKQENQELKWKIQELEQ

[6] = biological target: T6, 4H1222-bN; experiment: two-hybrid library CCNG1
T6 chain: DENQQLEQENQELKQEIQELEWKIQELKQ

[7] = biological target: T7, 4H1449-bN; experiment: two-hybrid library CCNG1
T7 chain: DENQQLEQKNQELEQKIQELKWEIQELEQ

[8] = biological target: T8, 4H619-bN; experiment: two-hybrid library CCNG1
T8 chain: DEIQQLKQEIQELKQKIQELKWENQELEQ

[9] = biological target: T9, 4H3129-bN; experiment: two-hybrid library CCNG1
T9 chain: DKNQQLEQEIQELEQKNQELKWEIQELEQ

[10] = biological target: T10, 4H3817-bA; experiment: two-hybrid library CCNG1
T10 chain: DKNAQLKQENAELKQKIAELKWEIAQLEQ

[11] = biological target: T11, 4H363-bN; experiment: two-hybrid library CCNG1
T11 chain: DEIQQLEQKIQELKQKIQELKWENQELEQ

[12] = biological target: T12, 4H1348-bN; experiment: two-hybrid library CCNG1
T12 chain: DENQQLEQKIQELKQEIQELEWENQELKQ

[13] = biological target: T13, 4H1985-bN; experiment: two-hybrid library CCNG1
T13 chain: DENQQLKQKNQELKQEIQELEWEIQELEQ

[14] = biological target: T14, 4H584-bN; experiment: two-hybrid library CCNG1
T14 chain: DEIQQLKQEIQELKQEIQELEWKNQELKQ

[15] = biological target: T15, 4H3172-bN; experiment: two-hybrid library CCNG1
T15 chain: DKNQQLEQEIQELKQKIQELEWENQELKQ

[16] = biological target: T16, 4H3631-bN; experiment: two-hybrid library CCNG1
T16 chain: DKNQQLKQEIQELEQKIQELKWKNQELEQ

[17] = biological target: T17, 4H1338-bN; experiment: two-hybrid library CCNG1
T17 chain: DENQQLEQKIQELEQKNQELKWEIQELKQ

[18] = biological target: T18, 4H3926-bN; experiment: two-hybrid library CCNG1
T18 chain: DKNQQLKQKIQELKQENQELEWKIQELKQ

[19] = biological target: T19, O9-bH; experiment: two-hybrid library CCNG1
T19 chain: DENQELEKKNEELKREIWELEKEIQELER

[20] = biological target: T20, 4H1804-bN; experiment: two-hybrid library CCNG1
T20 chain: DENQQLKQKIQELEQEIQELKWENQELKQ

[21] = biological target: T21, 4H3817-bN; experiment: two-hybrid library CCNG1
T21 chain: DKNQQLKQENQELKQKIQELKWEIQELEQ

[22] = biological target: T22, 4H1899-bN; experiment: two-hybrid library CCNG1
T22 chain: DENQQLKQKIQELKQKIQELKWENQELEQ

[23] = biological target: T23, 4H906-bN; experiment: two-hybrid library CCNG1
T23 chain: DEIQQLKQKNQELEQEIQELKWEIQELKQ

[24] = biological target: T24, 4H570-bN; experiment: two-hybrid library CCNG1
T24 chain: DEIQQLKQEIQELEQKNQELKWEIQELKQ

[25] = biological target: T25, 4H3638-bN; experiment: two-hybrid library CCNG1
T25 chain: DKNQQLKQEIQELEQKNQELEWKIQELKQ

[26] = biological target: T26, 4H1359-bN; experiment: two-hybrid library CCNG1
T26 chain: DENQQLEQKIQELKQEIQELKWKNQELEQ

[27] = biological target: T27, 4H3613-bN; experiment: two-hybrid library CCNG1
T27 chain: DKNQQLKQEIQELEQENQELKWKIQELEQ

[28] = biological target: T28, 4H1373-bN; experiment: two-hybrid library CCNG1
T28 chain: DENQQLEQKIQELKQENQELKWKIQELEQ

[29] = biological target: T29, 4H3974-bN; experiment: two-hybrid library CCNG1
T29 chain: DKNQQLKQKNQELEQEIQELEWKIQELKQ

[30] = biological target: T30, 4H1393-bN; experiment: two-hybrid library CCNG1
T30 chain: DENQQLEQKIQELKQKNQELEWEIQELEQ

[31] = biological target: T31, 4H850-bN; experiment: two-hybrid library CCNG1
T31 chain: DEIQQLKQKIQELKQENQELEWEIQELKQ

[32] = biological target: T32, 4H1710-bN; experiment: two-hybrid library CCNG1
T32 chain: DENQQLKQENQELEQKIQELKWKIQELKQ

[33] = biological target: T33, 4H3858-bN; experiment: two-hybrid library CCNG1
T33 chain: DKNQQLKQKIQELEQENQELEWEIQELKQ

[34] = biological target: T34, 4H3277-bH; experiment: two-hybrid library CCNG1
T34 chain: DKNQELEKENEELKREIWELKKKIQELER

[35] = biological target: T35, 4H477-bH; experiment: two-hybrid library CCNG1
T35 chain: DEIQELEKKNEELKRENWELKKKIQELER

[36] = biological target: T36, 4H2839-bH; experiment: two-hybrid library CCNG1
T36 chain: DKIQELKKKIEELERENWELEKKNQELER

[37] = biological target: T37, 4H121-bH; experiment: two-hybrid library CCNG1
T37 chain: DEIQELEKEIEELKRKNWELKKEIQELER

[38] = biological target: T38, 4H3057-bH; experiment: two-hybrid library CCNG1
T38 chain: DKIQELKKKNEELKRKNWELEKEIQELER

[39] = biological target: T39, 4H182-bH; experiment: two-hybrid library CCNG1
T39 chain: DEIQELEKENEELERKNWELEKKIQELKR

[40] = biological target: T40, 4H40-bH; experiment: two-hybrid library CCNG1
T40 chain: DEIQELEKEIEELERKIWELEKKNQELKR

[41] = biological target: T41, 4H2438-bH; experiment: two-hybrid library CCNG1
T41 chain: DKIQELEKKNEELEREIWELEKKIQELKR

[42] = biological target: T42, 4H741-bH; experiment: two-hybrid library CCNG1
T42 chain: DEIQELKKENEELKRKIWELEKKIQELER

[43] = biological target: T43, 4H348-bH; experiment: two-hybrid library CCNG1
T43 chain: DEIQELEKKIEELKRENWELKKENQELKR

[44] = biological target: T44, 4H492-bH; experiment: two-hybrid library CCNG1
T44 chain: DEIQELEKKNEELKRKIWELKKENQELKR

[45] = biological target: T45, 4H2134-bH; experiment: two-hybrid library CCNG1
T45 chain: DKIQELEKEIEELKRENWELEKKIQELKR

[46] = biological target: T46, 4H2692-bH; experiment: two-hybrid library CCNG1
T46 chain: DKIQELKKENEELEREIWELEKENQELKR

[47] = biological target: T47, 4H2588-bH; experiment: two-hybrid library CCNG1
T47 chain: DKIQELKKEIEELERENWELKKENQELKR

[48] = biological target: T48, 4H319-bH; experiment: two-hybrid library CCNG1
T48 chain: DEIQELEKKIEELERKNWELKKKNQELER

[49] = biological target: T49, 4H2503-bH; experiment: two-hybrid library CCNG1
T49 chain: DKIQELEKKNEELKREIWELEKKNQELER

[50] = biological target: T50, 4H2717-bH; experiment: two-hybrid library CCNG1
T50 chain: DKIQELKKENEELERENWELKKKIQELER

[51] = biological target: T51, 4H2915-bH; experiment: two-hybrid library CCNG1
T51 chain: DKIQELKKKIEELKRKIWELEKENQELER

[52] = biological target: T52, 4H2223-bH; experiment: two-hybrid library CCNG1
T52 chain: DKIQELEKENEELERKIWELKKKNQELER

[53] = biological target: T53, 4H2143-bH; experiment: two-hybrid library CCNG1
T53 chain: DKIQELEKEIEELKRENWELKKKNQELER

[54] = biological target: T54, 4H2473-bH; experiment: two-hybrid library CCNG1
T54 chain: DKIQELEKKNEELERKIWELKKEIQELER

[55] = biological target: T55, Core_NINN-es_KEEE; experiment: two-hybrid library CCmax; conditions: mean of both orientations
T55 chain: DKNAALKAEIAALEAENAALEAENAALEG

[56] = biological target: T56, 4H2883-bH; experiment: two-hybrid library CCNG1
T56 chain: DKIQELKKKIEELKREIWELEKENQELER

[57] = biological target: T57, 4H2937-bH; experiment: two-hybrid library CCNG1
T57 chain: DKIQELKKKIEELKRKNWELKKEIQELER

[58] = biological target: T58, 4H342-bH; experiment: two-hybrid library CCNG1
T58 chain: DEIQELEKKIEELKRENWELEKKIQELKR

[59] = biological target: T59, 4H2696-bH; experiment: two-hybrid library CCNG1
T59 chain: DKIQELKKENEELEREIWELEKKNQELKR

[60] = biological target: T60, 4H2944-bH; experiment: two-hybrid library CCNG1
T60 chain: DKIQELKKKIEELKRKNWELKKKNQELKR

[61] = biological target: T61, 4H48-bH; experiment: two-hybrid library CCNG1
T61 chain: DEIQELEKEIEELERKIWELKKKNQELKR

[62] = biological target: T62, 4H19-bH; experiment: two-hybrid library CCNG1
T62 chain: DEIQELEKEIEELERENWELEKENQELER

[63] = biological target: T63, 4H491-bH; experiment: two-hybrid library CCNG1
T63 chain: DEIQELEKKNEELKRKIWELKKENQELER

Binder: DEIQELEKEIEELKRKNWELKKEIQELER [4H121-bH]
- interaction score [34]: -0.678
- interaction score [35]: -1.3
- interaction score [36]: 1.02
- interaction score [37]: -0.364
- interaction score [38]: 0.547
- interaction score [39]: 0.0625
- interaction score [40]: -1.44
- interaction score [41]: 1.45
- interaction score [42]: -0.43
- interaction score [43]: -0.636
- interaction score [44]: -0.574
- interaction score [45]: 1.11
- interaction score [46]: 0.482
- interaction score [47]: -1.11
- interaction score [48]: -1.11
- interaction score [49]: -0.913
- interaction score [50]: 0.068
- interaction score [51]: 0.235
- interaction score [52]: 1.48
- interaction score [53]: 0.472
- interaction score [54]: -0.404

Binder: DEIQELEKEIEELERENWELEKENQELER [4H19-bH]
- interaction score [56]: 1.05
- interaction score [57]: 0.634
- interaction score [58]: -0.785
- interaction score [59]: 0.41
- interaction score [60]: 1.17
- interaction score [61]: -1.56
- interaction score [62]: -0.777
- interaction score [63]: 0.299

The next lines start with the values.

- interaction score [1]: 1.79
Binder: DEIAALEAKNAALKAKNAALKAKNAALKG [Core_INNN-es_EKKK]

- interaction score [2]: 0.105
- interaction score [3]: -0.764
- interaction score [4]: -1.38
- interaction score [5]: 0.612
- interaction score [6]: -1.63
- interaction score [7]: -0.277
- interaction score [8]: -0.785
- interaction score [9]: -0.201
- interaction score [10]: 1.4
- interaction score [11]: -0.189
- interaction score [12]: -2.2
- interaction score [13]: -2.04
- interaction score [14]: -0.959
- interaction score [15]: -0.0903
- interaction score [16]: 0.357
- interaction score [17]: 0.344
- interaction score [18]: 0.755
- interaction score [19]: 1.11
- interaction score [20]: 0.407
- interaction score [21]: 2.15
- interaction score [22]: -0.657
- interaction score [23]: -1.3
- interaction score [24]: -0.0662
- interaction score [25]: 0.921
- interaction score [26]: 0.554
- interaction score [27]: 0.482
- interaction score [28]: -0.0597
- interaction score [29]: -0.957
- interaction score [30]: -0.718
- interaction score [31]: 0.741
- interaction score [32]: 0.715
- interaction score [33]: -0.767
Binder: DENQQLEQENQELKQEIQELEWKIQELKQ [4H1222-bN]

- interaction score [55]: 2.12
Binder: DENAALEAKIAALKAKNAALKAKNAALKG [Core_NINN-es_EKKK]
